Data as given in the supplement of paper PMC9732359.
± gives the uncertainty stated by the source.

Experiment: protein stability index of a GFP-peptide fusion (yeast GPS) (PSI 1-4); higher = more stable; sorted into four equal gates, so the index is relative within each strain
How it was run: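 Tiled 17-residue yeast protein peptides were fused downstream of GFP in a plasmid that also expresses Cherry, and the pooled library was carried in yeast. Mid-log cultures in leucine-free medium were sorted into four equal gates by GFP/Cherry fluorescence ratio, and plasmids from each gate were PCR-amplified and Illumina-sequenced, with reads assigned to strains by barcodes. The protein stability index for each peptide was each gate's read frequency times its gate number, summed.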

Sequence | protein stability index (doa10∆) | protein stability index (pdr5∆) | protein stability index (ubr1∆) | protein stability index (san1∆)
SGMGPDYRVLVDKSRKV [PRE8] | 3 ± 0.14 | 2.21 ± 0.19 | 2.98 ± 0.24 | –
NENPINKIMTNQINSFW [NUT1] | 2.5 ± 0.065 | 2.66 ± 0.064 | 2.9 ± 0.042 | 2.43 ± 0.054
TAELIKELKEKEAAESP [PUP2] | 2.79 ± 0.058 | 3.3 ± 0.094 | 3.22 ± 0.074 | 3.21 ± 0.12
YSDENDPSISNNIRQAI [RRP4] | 2.53 ± 0.077 | 2.75 ± 0.066 | 2.47 ± 0.061 | 3 ± 0.065
NKGRAVYINPSGEKIDF [BRR2] | 2.98 ± 0.13 | 2.76 ± 0.1 | 3.17 ± 0.098 | 2.91 ± 0.071
KKITLQLLDTSNQRFKD [SIN4] | 3.02 ± 0.059 | 3.18 ± 0.067 | 2.88 ± 0.039 | 2.91 ± 0.048
MIDLGFEDQVTNILTKV [PRP28] | – | 3.67 ± 0.25 | 3.16 ± 0.19 | 2.88 ± 0.22
DDDAVRREVQIQLQEFL [NSL1] | 3.28 ± 0.093 | 3.27 ± 0.1 | 3.45 ± 0.089 | 3.36 ± 0.073
RSRYRREIDALKKQLHV [YIL149C/MLP2] | 3.24 ± 0.074 | 3.16 ± 0.05 | 3.2 ± 0.036 | 3.23 ± 0.045
QLGEWAGLGKIDREGNA [RPS12] | 3.67 ± 0.28 | – | 3.35 ± 0.14 | 3.4 ± 0.26
NERRKDLAERASELDES [SMC3] | 2.13 ± 0.058 | 2.79 ± 0.06 | 2.97 ± 0.054 | 1.98 ± 0.11
MIYDDAHEISQGVYGAV [BRR2] | 3 ± 0.068 | 2.88 ± 0.051 | 2.67 ± 0.045 | 2.83 ± 0.049
TLGNQMLSAHNIIESIA [YJR042W/NUP85] | 2.33 ± 0.097 | 2.58 ± 0.073 | 2.79 ± 0.072 | 2.53 ± 0.14
SAFMKFSKAIEWDMLNV [BRR2] | 2.15 ± 0.07 | 1.9 ± 0.072 | 2.04 ± 0.045 | 1.99 ± 0.081
RNMIIVPEMIGSVVGIY [RPS15] | 1.31 ± 0.094 | 1.42 ± 0.057 | 1.45 ± 0.057 | 1.53 ± 0.13
LMTKLNSFKLFKAEKLQ [RPC17] | 1.97 ± 0.059 | 1.88 ± 0.054 | 1.75 ± 0.04 | 1.92 ± 0.06
VSLVVNFQISKKMDDYI [PRP28] | 2.39 ± 0.066 | 2.05 ± 0.07 | 2.03 ± 0.05 | 2.38 ± 0.1
VKGRENELLLPSELNQL [RPC82] | – | – | – | 3.35 ± 0.13
RMRNRALREMRKSDQQD [POP1] | 3.61 ± 0.13 | 3.63 ± 0.17 | 3.13 ± 0.13 | 3.23 ± 0.11
ANLGKYGILSIDDLIHE [RPL7A] | 1.78 ± 0.092 | 1.98 ± 0.094 | 1.15 ± 0.086 | 1.54 ± 0.17
EQWLRQFEVSDDEKNDK [SNF2] | 3.41 ± 0.065 | 3.21 ± 0.059 | 3.09 ± 0.046 | 3.17 ± 0.053
HKLRESLPLIVFLRNRL [RPS4A] | 1.85 ± 0.052 | 1.57 ± 0.053 | 1.43 ± 0.043 | 1.4 ± 0.1
PSMKKIKIEPSADDDVN [SIR3] | 1.95 ± 0.077 | 2.63 ± 0.1 | 2.73 ± 0.069 | 2.75 ± 0.091
LLIRKLPFQRLVREIAQ [HHT1] | 1.29 ± 0.085 | 1.48 ± 0.094 | 1.73 ± 0.097 | 1.44 ± 0.16
HQNVIIGSNGSGKSNFF [SMC3] | 3.07 ± 0.086 | 2.7 ± 0.091 | 2.85 ± 0.057 | 2.84 ± 0.069
SDKQRRLLAKDAMIAQR [DIS3] | 2.29 ± 0.056 | 2.48 ± 0.049 | 2.46 ± 0.049 | 2.36 ± 0.064
QIDHFKSMLSKPETLSI [SWI3] | 2.61 ± 0.086 | 2.44 ± 0.074 | 2.4 ± 0.048 | 2.73 ± 0.065

Sequence | protein stability index (doa10∆) | protein stability index (pdr5∆) | protein stability index (ubr1∆) | protein stability index (san1∆)
FGKLLQAYQFLNTFGSK [ITC1] | 1.5 ± 0.064 | 1.26 ± 0.073 | 1.31 ± 0.094 | 1.19 ± 0.12
VQLRYGDYDSHDISRYV [PRP8] | 2.41 ± 0.062 | 2.46 ± 0.064 | 2.09 ± 0.044 | 2.69 ± 0.075
RKWAARAASAKIESSVE [RPS8A] | 3.21 ± 0.087 | 3.2 ± 0.062 | 3.4 ± 0.054 | 2.74 ± 0.056
LQSISSLTISLYASDYA [RPN7] | 1.71 ± 0.031 | 1.84 ± 0.03 | 1.95 ± 0.027 | 1.83 ± 0.039
SYSPTSPSYSPTSPAYS [RPO21] | 3 ± 0.071 | 3.05 ± 0.063 | 3.15 ± 0.048 | 2.73 ± 0.062
VKHSPGAIKPFTPKLIY [ECM29] | 3.16 ± 0.089 | – | 2.93 ± 0.1 | 2.87 ± 0.19
VMEIGKDAEYLRNYLTP [PUP1] | 2.85 ± 0.076 | 2.85 ± 0.096 | 2.85 ± 0.12 | 2.77 ± 0.086
SRVINVVRAASSLASQD [RRP6] | 1.98 ± 0.082 | 2.47 ± 0.074 | – | 2.57 ± 0.18
AVALAASDLVLIVIDVV [SNU114] | 2.08 ± 0.052 | 2.5 ± 0.06 | 2.13 ± 0.05 | 2.75 ± 0.094
TSGTNIAGTFNVGKPDQ [YOR098C/NUP1] | 3.22 ± 0.088 | 3.01 ± 0.11 | 3.21 ± 0.1 | 3.27 ± 0.079
KSIIGKLTAERANLRKY [POP1] | 2.72 ± 0.059 | 2.92 ± 0.081 | 2.6 ± 0.074 | 2.8 ± 0.07
RTGPKALPDAVTIIEPK [RPS3] | 2.97 ± 0.058 | 3.03 ± 0.066 | 3.09 ± 0.06 | 3.1 ± 0.059
IMWQLLDGVSYLHQNWV [SSN3] | 1.61 ± 0.074 | 1.59 ± 0.08 | 1.75 ± 0.076 | 1.23 ± 0.12
FKNMGNTCYLNATLQAL [UBP6] | 1.8 ± 0.083 | 1.92 ± 0.083 | 1.83 ± 0.071 | 1.55 ± 0.12
RNRGKIHSGVLSSIESD [YMR153W/NUP53] | 2.93 ± 0.1 | 2.96 ± 0.12 | 2.94 ± 0.087 | 3.13 ± 0.066
HGTSTSAEDEENIIQRL [CDC53] | 3.13 ± 0.064 | 3.34 ± 0.059 | 3.06 ± 0.057 | 3.13 ± 0.044
ENIAQMKPKAEKESDDG [SMC4] | 3.1 ± 0.26 | 3.16 ± 0.23 | 3.74 ± 0.2 | –
SNAAGADDAISMHLLKD [SRB8] | 3.17 ± 0.1 | 2.49 ± 0.065 | 2.76 ± 0.055 | 3.07 ± 0.099
DEIDAALDFRNVSIVAN [SMC4] | 1.75 ± 0.056 | 1.91 ± 0.05 | 1.54 ± 0.051 | 2.03 ± 0.076
RLMMNSKVGSADTGRDD [RPN11] | 3.39 ± 0.085 | 3.36 ± 0.068 | 3.52 ± 0.07 | 3.51 ± 0.058
LAPELNQAIWKRGVKGV [RPL31A] | – | 2.04 ± 0.22 | 1.57 ± 0.19 | –
EHIKEGSEIAISSLGYR [SWI3] | 2.78 ± 0.055 | 3.02 ± 0.063 | 2.95 ± 0.052 | 2.99 ± 0.05
MAATATDKIGRSVPAPG [FAS2] | 2.82 ± 0.081 | 3 ± 0.076 | 3.01 ± 0.053 | 3.04 ± 0.073
NVLVTMPVAPTMEVKSF [YMR129W/POM152] | 1.54 ± 0.068 | 1.62 ± 0.11 | 1.46 ± 0.068 | 1.95 ± 0.11
PQTTQMFQSQSQLQPQP [YDL088C/ASM4] | 2.7 ± 0.052 | 2.5 ± 0.039 | 2.46 ± 0.03 | 2.65 ± 0.046
HLKHENANDETTAVEDE [RPB4] | 2.92 ± 0.067 | 3.08 ± 0.093 | 3.17 ± 0.14 | 3.17 ± 0.086
